Biological target: IL-18 (human) (UniProt Q14116)
Test: cell-based or functional assay

B1: neutralizing anti-IL-18 mAb (125-2H; MLB) (antibody, from another filing, V domains shown)
VH: EIQLQQSGPELVKPGASVKVSCKASGYSFTDYFIYWVKQSHGKSLEWIGDIDPYNGDTSYNQKFRDKATLTVDQSSTTAFMHLNSLTSEDSAVYFCARGLRFWGQGTLVTVSA
VL: DIQMTQSPSSLSASLGERVSLTCRASQDIGSKLYWLQQEPDGTFKRLIYATSSLDSGVPKRFSGSRSGSDYSLTISSLESEDFVDYYCLQYASSPYTFGGGTKLAIKR
With B1 as the binder, how does the decrease in proliferation of CD8+ T cells primed with CD5+ DCs (CFSE dilution) read?
The decrease in proliferation of CD8+ T cells primed with CD5+ DCs (CFSE dilution) was 40%.
